Experiments:
[1] = target: T1, pTT5hIgG1-S5 fusion protein (hepatitis B virus (HBV subtype B)); test: ELISA, fusion protein coated at 1 µg/mL, antibody at 1 µg/ml
T1 construct: also called S5 (Loop2-Cter); Loop2-Cter

[2] = target: T2, pTT5hIgG1-S4 fusion protein (hepatitis B virus (HBV subtype B)); test: as above
T2 construct: also called S4 (Cter); Cter

B1: 125smIgG2 (Fc fusion)
chain: QLQLVESGGGLVQAGGSLRLSCAASGGTISAYAMGWFRQAPGKDREFVAGISWTTSSAYYTDSVKGRFTISRDFAKNTVYLQMNSLKPEDTAVYYCNDRVSDTVGFGSWGQGTQVTVSSPRVPITQNPCPPLKECPPCAAPDLLGGPSVFIFPPKIKDVLMISLSPMVTCVVVDVSEDDPDVQISWFVNNVEVHTAQTQTHREDYNSTLRVVSALPIQHQDWMSGKEFKCKVNNRALPSPIEKTISKPRGPVRAPQVYVLPPPAEEMTKKEFSLTCMITGFLPAEIAVDWTSNGRTEQNYKNTATVLDSDGSYFMYSKLRVQKSTWERGSLFACSVVHEGLHNHLTTKTISRSLGK
binding result [1]: binds | binding result [2]: binds
